Assay results published in patent US20250042970A1.

B1: Benlysta (antibody, INN chains, looked up, V domains shown)
VH: QVQLQQSGAEVKKPGSSVRVSCKASGGTFNNNAINWVRQAPGQGLEWMGGIIPMFGTAKYSQNFQGRVAITADESTGTASMELSSLRSEDTAVYYCARSRDLLLFPHHALSPWGRGTMVTVSS
VL: SSELTQDPAVSVALGQTVRVTCQGDSLRSYYASWYQQKPGQAPVLVIYGKNNRPSGIPDRFSGSSSGNTASLTITGAQAEDEADYYCSSRDSSGNHWVFGGGTELTVLG
B2: BION-1301 (antibody, INN chains, looked up, V domains shown)
VH: QVQLVQSGAEVKKPGASVKVSCKASGYTFTDYTIHWVRQATGQGLEWMGWIYPLRGSINYAQKFQGRVTMTADKSISTVYMELSSLRSEDTAVYFCARHGAYYSNAFDYWGQGTLVTVSS
VL: EIVMTQSPATLSVSPGERATLSCRASESVDNDGIRFLHWYQQKPGQAPRLLIYRASTRATGIPARFSGSGSRTEFTLTISSLQSEDFAVYYCQQSNKDPYTFGGGTKVEIK

Tests used:
[1] = target: human BAFF (Examples 21-23) (human) (UniProt Q9Y275); test: assay not given (Example 21)
[2] = target: human APRIL (Examples 21-23) (human) (UniProt O75888); test: assay not given (Example 21)
Chain of human APRIL (Examples 21-23) (human) (O75888 105-250 limits assumed): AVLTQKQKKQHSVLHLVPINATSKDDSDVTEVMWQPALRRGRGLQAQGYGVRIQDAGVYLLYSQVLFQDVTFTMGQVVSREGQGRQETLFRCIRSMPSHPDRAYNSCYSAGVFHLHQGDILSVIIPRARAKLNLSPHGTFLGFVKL

Binder	Kd [1]	Kd [2]
B1	0.0023 nM	–
B2	–	0.4 nM
